# Molecular target: CD123 expressed on MOLM13 AML cells (UniProt P26951)
# Assay: cell-based or functional assay
# Chain of UniProt P26951 (P26951 19-378 limits assumed): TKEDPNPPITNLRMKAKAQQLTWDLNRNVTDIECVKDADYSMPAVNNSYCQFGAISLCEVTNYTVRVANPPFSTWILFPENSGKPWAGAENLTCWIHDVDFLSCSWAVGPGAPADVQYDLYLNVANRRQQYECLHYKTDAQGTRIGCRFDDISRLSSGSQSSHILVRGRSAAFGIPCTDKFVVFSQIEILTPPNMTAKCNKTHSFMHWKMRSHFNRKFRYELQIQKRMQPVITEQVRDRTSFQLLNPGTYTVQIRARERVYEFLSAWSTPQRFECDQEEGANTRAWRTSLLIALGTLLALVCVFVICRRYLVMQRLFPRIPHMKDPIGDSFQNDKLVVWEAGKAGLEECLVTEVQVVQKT
Substance,TIB153 % CD69 activation: MOLM-13-WT/MOLM-13 CD123KO,"CD69 activation, Average MOLM13-WT fold change over MOLM-CD123KO [fold]","CD69 activation, MOLM13 fold change over MOLM-CD123KO, Replicate 1 [fold]","CD69 activation, MOLM13 fold change over MOLM-CD123KO, Replicate 2 [fold]"
IL3-K110E-CD28costim (SEQ ID NO: 29) (receptor),1.03,–,–,–
IL3-K110E-nocostim (SEQ ID NO: 27) (receptor),1.06,–,–,–
IL3-WT-41BBcostim (SEQ ID NO: 25) (receptor),4.74,3.84,4.74,2.94
IL3-K110E-41BBcostim (receptor),1.28,–,–,–

# Reference: patent publication US20250082755A1
